Measurements from the supplement of paper PMC9112550, “Optimization of the antimicrobial peptide Bac7 by deep mutational scanning” (BMC Biology, 2022).

system: Escherichia coli TOP10; assay: shrunken log2 fold change of peptide-encoding DNA abundance (4.5 h post-induction vs induction); higher = less antimicrobial activity (less host growth inhibition); conditions: time post-induction: 4.5 h; library: site-saturation at positions 5, 18, 19, 20
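Also: peptides expressed intracellularly from a pBAD plasmid library in pooled LB shake-flask culture, induced with 0.3% L-arabinose, DNA abundance read by NGS, three biological replicates, DESeq2 with apeglm shrinkage.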

| Sequence | shrunken log2 fold change |
| --- | --- |
| RRIRLRPPRLPRPRPRPQKKPRP | -0.176 |
| RRIRYRPPRLPRPRPRPCFVPRP | -1.09 |
| RRIRRRPPRLPRPRPRPTTPPRP | 0.463 |
| RRIRSRPPRLPRPRPRPQPVPRP | 0.0573 |
| RRIRVRPPRLPRPRPRPLGSPRP | -0.115 |
| RRIRYRPPRLPRPRPRPYALPRP | -0.172 |
| RRIRHRPPRLPRPRPRPRNKPRP | -0.2 |
| RRIRYRPPRLPRPRPRPHYMPRP | -1.45 |
| RRIRERPPRLPRPRPRPFSYPRP | -0.0589 |
| RRIRCRPPRLPRPRPRPLWCPRP | -0.208 |
| RRIRHRPPRLPRPRPRPSCRPRP | -0.105 |
| RRIRIRPPRLPRPRPRPLGFPRP | -0.393 |
| RRIRDRPPRLPRPRPRPQYSPRP | -0.028 |
| RRIRSRPPRLPRPRPRPMSCPRP | -0.067 |
| RRIRFRPPRLPRPRPRPRVTPRP | 0.42 |
| RRIRNRPPRLPRPRPRPMTSPRP | -0.0113 |
| RRIRGRPPRLPRPRPRPGKDPRP | 0.18 |
| RRIRNRPPRLPRPRPRPRKCPRP | -0.0149 |
| RRIRVRPPRLPRPRPRPAGKPRP | -0.308 |
| RRIRRRPPRLPRPRPRPGCEPRP | 0.354 |
| RRIRNRPPRLPRPRPRPSLSPRP | -0.205 |
| RRIRNRPPRLPRPRPRPFQPPRP | -0.0306 |

| Sequence | shrunken log2 fold change |
| --- | --- |
| RRIRIRPPRLPRPRPRPNFEPRP | -0.218 |
| RRIRVRPPRLPRPRPRPAREPRP | 0.254 |
| RRIRHRPPRLPRPRPRPAHNPRP | -0.366 |
| RRIRFRPPRLPRPRPRPTQIPRP | 0.0911 |
| RRIRVRPPRLPRPRPRPIDQPRP | 0.216 |
| RRIRWRPPRLPRPRPRPNPSPRP | 0.219 |
| RRIRTRPPRLPRPRPRPEPWPRP | 0.291 |
| RRIRCRPPRLPRPRPRPAYTPRP | -0.305 |
| RRIRGRPPRLPRPRPRPTIIPRP | -0.026 |
| RRIRIRPPRLPRPRPRPADDPRP | -0.062 |
| RRIRVRPPRLPRPRPRPFLPPRP | -0.198 |
| RRIRWRPPRLPRPRPRPTSGPRP | 0.593 |
| RRIRLRPPRLPRPRPRPSSSPRP | 0.172 |
| RRIRQRPPRLPRPRPRPWPHPRP | 0.172 |
| RRIRLRPPRLPRPRPRPSGLPRP | -0.429 |
| RRIRPRPPRLPRPRPRPGTNPRP | 1.46 |
| RRIRPRPPRLPRPRPRPCIQPRP | -0.209 |
| RRIRVRPPRLPRPRPRPYHEPRP | -0.159 |
| RRIRIRPPRLPRPRPRPLWLPRP | -0.208 |
| RRIRFRPPRLPRPRPRPGCCPRP | 0.258 |
| RRIRRRPPRLPRPRPRPEVLPRP | 0.211 |
| RRIRARPPRLPRPRPRPNFYPRP | 0.0801 |

| Sequence | shrunken log2 fold change |
| --- | --- |
| RRIRSRPPRLPRPRPRPQKIPRP | -0.53 |
| RRIRPRPPRLPRPRPRPHPFPRP | -0.115 |
| RRIRNRPPRLPRPRPRPFQQPRP | -0.00931 |
| RRIRDRPPRLPRPRPRPDSNPRP | 0.205 |
| RRIRIRPPRLPRPRPRPRTVPRP | -0.197 |
| RRIRWRPPRLPRPRPRPMFDPRP | 0.139 |
| RRIRLRPPRLPRPRPRPGIQPRP | -0.0773 |
| RRIRSRPPRLPRPRPRPILIPRP | -0.384 |
| RRIRRRPPRLPRPRPRPHNKPRP | -0.276 |
| RRIRSRPPRLPRPRPRPEYEPRP | -0.0387 |
| RRIRQRPPRLPRPRPRPLYFPRP | -0.623 |
| RRIRTRPPRLPRPRPRPPVKPRP | 0.385 |
| RRIRLRPPRLPRPRPRPTQIPRP | 0.14 |
| RRIRHRPPRLPRPRPRPWYQPRP | 0.0124 |
| RRIRLRPPRLPRPRPRPWWAPRP | 0.0811 |
| RRIRDRPPRLPRPRPRPVGSPRP | 0.519 |
| RRIRARPPRLPRPRPRPITSPRP | 0.157 |
| RRIRHRPPRLPRPRPRPHLAPRP | -0.0341 |
| RRIRQRPPRLPRPRPRPKVNPRP | -0.0444 |
| RRIRCRPPRLPRPRPRPFCHPRP | -0.142 |
| RRIRIRPPRLPRPRPRPPRHPRP | 0.166 |
| RRIRCRPPRLPRPRPRPAHPPRP | 0.125 |

| Sequence | shrunken log2 fold change |
| --- | --- |
| RRIRLRPPRLPRPRPRPGNKPRP | -0.46 |
| RRIRMRPPRLPRPRPRPKNHPRP | 0.412 |
| RRIRDRPPRLPRPRPRPYRGPRP | -0.0122 |
| RRIRIRPPRLPRPRPRPLPLPRP | 0.0472 |
| RRIRLRPPRLPRPRPRPLVHPRP | -0.0413 |
| RRIRGRPPRLPRPRPRPHHYPRP | -0.524 |
| RRIRQRPPRLPRPRPRPRSYPRP | -0.286 |
| RRIRSRPPRLPRPRPRPHMEPRP | -0.376 |
| RRIRGRPPRLPRPRPRPMGWPRP | 0.967 |
| RRIRERPPRLPRPRPRPPMEPRP | -0.0809 |
| RRIRMRPPRLPRPRPRPNCNPRP | 0.675 |
| RRIRRRPPRLPRPRPRPWKGPRP | -0.209 |
| RRIRTRPPRLPRPRPRPYHCPRP | 0.0119 |
| RRIRPRPPRLPRPRPRPCFIPRP | -0.735 |
| RRIRQRPPRLPRPRPRPASPPRP | -0.0456 |
| RRIRVRPPRLPRPRPRPCRTPRP | -1.03 |
| RRIRHRPPRLPRPRPRPRWDPRP | 0.127 |
| RRIRTRPPRLPRPRPRPHMYPRP | -0.275 |
| RRIRLRPPRLPRPRPRPCDDPRP | -0.189 |
| RRIRFRPPRLPRPRPRPCPKPRP | 0.036 |
| RRIRSRPPRLPRPRPRPWWCPRP | 0.0769 |
| RRIRYRPPRLPRPRPRPYYNPRP | -0.231 |

| Sequence | shrunken log2 fold change |
| --- | --- |
| RRIRGRPPRLPRPRPRPWRYPRP | 0.122 |
| RRIRWRPPRLPRPRPRPQFVPRP | -0.1 |
| RRIRLRPPRLPRPRPRPSKWPRP | -0.348 |
| RRIRCRPPRLPRPRPRPQVVPRP | -0.266 |
| RRIRRRPPRLPRPRPRPIYQPRP | 2.25 |
| RRIRHRPPRLPRPRPRPFFNPRP | -0.632 |
| RRIRSRPPRLPRPRPRPQYDPRP | -0.352 |
| RRIRLRPPRLPRPRPRPYAMPRP | -0.226 |
| RRIRFRPPRLPRPRPRPQCSPRP | 0.0505 |
| RRIRWRPPRLPRPRPRPMYTPRP | 0.0906 |
| RRIRTRPPRLPRPRPRPCYHPRP | -0.637 |
| RRIRIRPPRLPRPRPRPAIVPRP | -0.135 |
| RRIRARPPRLPRPRPRPPMYPRP | -0.147 |
| RRIRYRPPRLPRPRPRPPKKPRP | -0.0754 |
| RRIRARPPRLPRPRPRPPCIPRP | -0.111 |
| RRIRQRPPRLPRPRPRPVGWPRP | 0.72 |
| RRIRNRPPRLPRPRPRPYEMPRP | -0.0417 |
| RRIRVRPPRLPRPRPRPFMLPRP | -0.279 |
| RRIRMRPPRLPRPRPRPHRAPRP | 0.677 |
| RRIRLRPPRLPRPRPRPQGHPRP | 0.137 |
| RRIRNRPPRLPRPRPRPLFYPRP | -0.586 |
